Data published in article PMC3734299, “Farnesyl Phosphatase, a Corpora allata Enzyme Involved in Juvenile Hormone Biosynthesis in Aedes aegypti” (PLoS ONE, 2013).
Values belong to the molecule of their own block, whether it stands above or below them.

Tests used:
AaFPPase-1 [1] = system: T1, AaFPPase-1; test: malachite green phosphate release; assay type: biochemical, Aedes aegypti; conditions: 100 mM MES pH 6.0, 2 mM MgCl2, 37 °C; read-out: Km μM ±SE
T1 construct: His-tagged, expressed in E. coli, purified on HiTrap chelating and PD-10 columns, ~35 kDa
Source text: malachite green phosphate release on AaFPPase-1

AaFPPase-1 [2] = system: T1, AaFPPase-1; test: p-NPP phosphatase assay, 96-well plate; assay type: biochemical, Aedes aegypti; conditions: Mg2+ cofactor; optimum pH 6.0
AaFPPase-2 [3] = molecular target: T2, AaFPPase-2 (Aedes aegypti, UniProt Q0IF21); test: malachite green phosphate release; assay type: biochemical; conditions: 100 mM MES pH 6.0, 2 mM MgCl2, 37 °C; read-out: Km μM ±SE
T2 construct: gene 5568744; His-tagged, expressed in E. coli, purified on HiTrap chelating and PD-10 columns, ~35 kDa
T2 sequence (Q0IF21 1-315): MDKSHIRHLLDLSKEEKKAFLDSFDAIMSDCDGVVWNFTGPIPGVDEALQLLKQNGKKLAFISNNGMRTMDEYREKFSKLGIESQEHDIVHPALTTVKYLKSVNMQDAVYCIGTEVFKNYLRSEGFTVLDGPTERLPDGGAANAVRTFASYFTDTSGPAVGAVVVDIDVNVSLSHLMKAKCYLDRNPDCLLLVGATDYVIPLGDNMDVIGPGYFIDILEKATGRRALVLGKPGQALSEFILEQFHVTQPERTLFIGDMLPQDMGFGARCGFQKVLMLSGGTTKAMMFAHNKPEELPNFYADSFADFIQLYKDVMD

AaFPPase-2 [4] = molecular target: T2, AaFPPase-2; test: p-NPP phosphatase assay, inhibition; assay type: biochemical; conditions: inhibitor 0 to 40 µM, 10 min pre-incubation
[5] = substrate: CC(C)=CCC/C(C)=C/CC/C(C)=C/CO[P@@](=O)(O)OP(=O)(O)O; test: malachite green phosphate release; assay type: biochemical, Aedes aegypti; conditions: 100 mM MES pH 6.0, 2 mM MgCl2, 37 °C
[6] = substrate: CC(C)=CCC/C(C)=C/COP(=O)(O)OP(=O)(O)O; test: malachite green phosphate release; assay type: biochemical, Aedes aegypti; conditions: 100 mM MES pH 6.0, 2 mM MgCl2, 37 °C
[7] = substrate: O=[N+]([O-])c1ccc(OP(=O)(O)O)cc1; test: p-NPP phosphatase assay, 96-well plate; assay type: biochemical, Aedes aegypti; conditions: Mg2+ cofactor, optimum pH 6.0

Molecule: CC(C)=CCC/C(C)=C/COP(=O)(O)OP(=O)(O)O [GPP]
Km (AaFPPase-1 [1]): 184 ± 14.2 µM

Molecule: CC(C)=CCC/C(C)=C/CC/C(C)=C/COP(=O)(O)OP(=O)(O)O [FPP]
Km (AaFPPase-1 [1]): 222 ± 11 µM

Molecule: CC(=O)N[C@@H](CSC/C=C(\C)CC/C=C(\C)CC/C=C(\C)CCC=C(C)C)C(=O)O [AGGC]
inhibition (AaFPPase-2 [4]): AGGC was a potent inhibitor of AaFPPase-1 and AaFPPase-2 (Figure S3)

B1: AaFPPase-2 (Aedes aegypti) (protein)
chain: MDKSHIRHLLDLSKEEKKAFLDSFDAIMSDCDGVVWNFTGPIPGVDEALQLLKQNGKKLAFISNNGMRTMDEYREKFSKLGIESQEHDIVHPALTTVKYLKSVNMQDAVYCIGTEVFKNYLRSEGFTVLDGPTERLPDGGAANAVRTFASYFTDTSGPAVGAVVVDIDVNVSLSHLMKAKCYLDRNPDCLLLVGATDYVIPLGDNMDVIGPGYFIDILEKATGRRALVLGKPGQALSEFILEQFHVTQPERTLFIGDMLPQDMGFGARCGFQKVLMLSGGTTKAMMFAHNKPEELPNFYADSFADFIQLYKDVMD
notes: His-tagged, expressed in E. coli, purified on HiTrap chelating and PD-10 columns, ~35 kDa
Km [5]: 221.02 ± 15.62 µM | Vmax [5]: 5.77 µmol/min/mg | kcat [5]: 2.98 s⁻¹ | kcat/Km [5]: 13200 M⁻¹ s⁻¹ | Km [6]: 273.98 ± 2.52 µM | Vmax [6]: 28.3 µmol/min/mg | kcat [6]: 17.5 s⁻¹ | kcat/Km [6]: 63000 M⁻¹ s⁻¹ | Km [7]: 315.5 ± 46.9 µM

More lines, now with the values ahead:

Km (AaFPPase-1 [2]): 3960 ± 127 µM
Molecule: O=[N+]([O-])c1ccc(OP(=O)(O)O)cc1 [p-NPP]

Km (AaFPPase-2 [3]): > 900 µM | Km (AaFPPase-1 [1]): > 900 µM
Molecule: C=C(C)CCO[P@@](=O)(O)OP(=O)(O)O [IPP]
